Measured values as given in the supplement of paper PMC10567573.

B1: TFE3 (parent)
chain: FHLGLEDILMEEEEGVVGGLSGGA

Variants of: B1
Assay: protein stability index of a GFP-peptide fusion (GPS, HEK-293T) (PSI 1-6); higher = more stable
Settings: c terminus: a fixed tail appended
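Note: lentivirally expressed fusions sorted by FACS into six bins by GFP to DsRed ratio, PSI derived from sequencing read proportions per bin multiplied by bin number.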

Variant	protein stability index
FHLGLEMILMEEEEGVVGGLSGGA	1.65
FHLGLESILMEEEEGVVGGLSGGA	3.31
FHLGLEKILMEEEEGVVGGLSGGA	2.77
FHLGLEPILMEEEEGVVGGLSGGA	3.5
FHLGLEYILMEEEEGVVGGLSGGA	1.57
FHLGLEHILMEEEEGVVGGLSGGA	2.88
FHLGLEVILMEEEEGVVGGLSGGA	2.89
FHLGLELILMEEEEGVVGGLSGGA	2.16
FHLGLECILMEEEEGVVGGLSGGA	2.34
FHLGLEEILMEEEEGVVGGLSGGA	3.56
FNLGLEDILMEEEEGVVGGLSGGA	4.84
FLLGLEDILMEEEEGVVGGLSGGA	3.46
FFLGLEDILMEEEEGVVGGLSGGA	3.15
FELGLEDILMEEEEGVVGGLSGGA	3.95
FRLGLEDILMEEEEGVVGGLSGGA	4.16
FSLGLEDILMEEEEGVVGGLSGGA	4.27
FDLGLEDILMEEEEGVVGGLSGGA	4.81
FWLGLEDILMEEEEGVVGGLSGGA	2.94
FCLGLEDILMEEEEGVVGGLSGGA	3.96
FPLGLEDILMEEEEGVVGGLSGGA	4.26
FHLGLEDILCEEEEGVVGGLSGGA	3.83
FHLGLEDILLEEEEGVVGGLSGGA	3.44
FHLGLEDILHEEEEGVVGGLSGGA	3.58
FHLGLEDILTEEEEGVVGGLSGGA	3.88

Variant	protein stability index
FHLGLEDILPEEEEGVVGGLSGGA	4.18
FHLGLEDILSEEEEGVVGGLSGGA	4.08
FHLGLEDILEEEEEGVVGGLSGGA	4.27
FHLGLEDILGEEEEGVVGGLSGGA	4.02
FHLGLEDILWEEEEGVVGGLSGGA	3.57
FHLGLEDILYEEEEGVVGGLSGGA	3.62
FHLGLEDILMEEEEGMVGGLSGGA	3.58
FHLGLEDILMEEEEGWVGGLSGGA	3.33
FHLGLEDILMEEEEGCVGGLSGGA	4.07
FHLGLEDILMEEEEGFVGGLSGGA	2.83
FHLGLEDILMEEEEGHVGGLSGGA	3.76
FHLGLEDILMEEEEGYVGGLSGGA	3.34
FHLGLEDILMEEEEGIVGGLSGGA	4.12
FHLGLEDILMEEEEGRVGGLSGGA	3.52
FHLGLEDILMEEEEGLVGGLSGGA	2.77
FHLGLEDDLMEEEEGVVGGLSGGA	4.59
FHLGLEDCLMEEEEGVVGGLSGGA	4.03
FHLGLEDKLMEEEEGVVGGLSGGA	4.31
FHLGLEDPLMEEEEGVVGGLSGGA	4.89
FHLGLEDHLMEEEEGVVGGLSGGA	4.01
FHLGLEDFLMEEEEGVVGGLSGGA	3.17
FHLGLEDQLMEEEEGVVGGLSGGA	4.28
FHLGLEDSLMEEEEGVVGGLSGGA	4.28
FHLGLEDRLMEEEEGVVGGLSGGA	3.93

Variant	protein stability index
FHLGLEDWLMEEEEGVVGGLSGGA	3.24
FHLGLEDNLMEEEEGVVGGLSGGA	4.25
FHLGLEDGLMEEEEGVVGGLSGGA	4.2
FHLGLEDTLMEEEEGVVGGLSGGA	3.88
FHLGLEDILMEEEENVVGGLSGGA	3.84
FHLGLEDILMEEEEHVVGGLSGGA	3.25
FHLGLEDILMEEEESVVGGLSGGA	3.92
FHLGLEDILMEEEEYVVGGLSGGA	3.04
FHLGLEDILMEEEELVVGGLSGGA	3.1
FHLGLEDILMEEEEKVVGGLSGGA	4.11
FHLGLEDILMEEEEQVVGGLSGGA	4.23
FHLGLEDILMEEEEEVVGGLSGGA	4.39
FHLGLEDILMEEEEGVVKGLSGGA	2.99
FHLGLEDILMEEEEGVVPGLSGGA	3.85
FHLGLEDILMEEEEGVVHGLSGGA	3.66
FHLGLEDILMEEEEGVVYGLSGGA	3.23
FHLGLEDILMEEEEGVVFGLSGGA	2.77
FHLGLEDILMEEEEGVVAGLSGGA	3.64
FHLGLEDILMEEEEGVVSGLSGGA	3.27
FHLGLEDILMEEEEGVVQGLSGGA	4.23
FHLGLEDILMEEEEGVVCGLSGGA	3.76
FHLGLEDILMEEEEGVVDGLSGGA	4.06
FHLGLEDILMEEEEGVVWGLSGGA	3.06
FHIGLEDILMEEEEGVVGGLSGGA	4.07

Variant	protein stability index
FHPGLEDILMEEEEGVVGGLSGGA	4.44
FHDGLEDILMEEEEGVVGGLSGGA	5.27
FHWGLEDILMEEEEGVVGGLSGGA	2.45
FHFGLEDILMEEEEGVVGGLSGGA	3.92
FHHGLEDILMEEEEGVVGGLSGGA	4.32
FHSGLEDILMEEEEGVVGGLSGGA	3.5
FHYGLEDILMEEEEGVVGGLSGGA	3.56
FHAGLEDILMEEEEGVVGGLSGGA	4.52
FHKGLEDILMEEEEGVVGGLSGGA	4.49
FHLGLEDIVMEEEEGVVGGLSGGA	4.11
FHLGLEDITMEEEEGVVGGLSGGA	4.37
FHLGLEDIWMEEEEGVVGGLSGGA	2.66
FHLGLEDILMAEEEGVVGGLSGGA	3.08
FHLGLEDILMQEEEGVVGGLSGGA	2.91
FHLGLEDILMLEEEGVVGGLSGGA	2.2
FHLGLEDILMYEEEGVVGGLSGGA	2.38
FHLGLEDILMDEEEGVVGGLSGGA	3.66
FHLGLEDILMHEEEGVVGGLSGGA	2.73
FHLGLEDILMIEEEGVVGGLSGGA	2.08
FHLGLEDILMFEEEGVVGGLSGGA	2.09
FHLGLEDILMPEEEGVVGGLSGGA	2.7
FHLGLEDILMMEEEGVVGGLSGGA	1.82
